# Measurements: patent US9962447B2, “Supramolecular aggregates comprising maleimido cores” (UFPEPTIDES S.R.L., priority 2013, dated 2018)
# B1: PWT2-N/OFQ: supramolecular aggregate of maleimido core PWT2 with nociceptin/orphanin FQ, made from PWT2 and [Cys18]N/OFQ-NH2 by thiol-Michael addition (conjugate)
# peptide: SCQRDCLTCQEKLHPALDSFDLEVCILECEEKVFPSPLWTPCTKVMARSSWQLSPAAPEHVAAALYQPRASEMQHLRRMPRVRSLFQEQEEPEPGMEEAGEMEQKQLQKRFGGFTGARKSARKLANQKRFSEFMRQYLVLSMQSSQRRRTLHQNGNVC
# Experiments:
# human NOP receptor = human NOP receptor (Homo sapiens, UniProt P41146); experiment: Calcium mobilization in CHO cells expressing human NOP receptor and Gαqi5; type: cell-based; conditions: inactive = inactive up to 1 μM
# human NOP receptor, sequence (P41146 whole entry): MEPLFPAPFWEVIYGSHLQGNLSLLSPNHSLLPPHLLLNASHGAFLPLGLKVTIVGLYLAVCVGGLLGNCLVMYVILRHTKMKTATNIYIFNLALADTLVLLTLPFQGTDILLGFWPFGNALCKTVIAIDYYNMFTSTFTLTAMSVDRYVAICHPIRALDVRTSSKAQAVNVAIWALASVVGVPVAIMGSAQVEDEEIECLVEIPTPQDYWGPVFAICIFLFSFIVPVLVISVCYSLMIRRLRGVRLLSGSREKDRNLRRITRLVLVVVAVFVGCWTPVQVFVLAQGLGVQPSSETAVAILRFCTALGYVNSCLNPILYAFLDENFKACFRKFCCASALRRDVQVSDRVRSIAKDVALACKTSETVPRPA
# Procedure: Cells were maintained in culture medium consisting of Dulbecco's MEM/HAM'S F-12 (50/50) supplemented with 10% foetal calf serum, penicillin (100 IU/ml), streptomycin (100 μg/ml), fungizone (2.5 μg/ml), geneticin (G418; 200 μg/ml) and hygromycin B ([…]). Cell cultures were kept at 37° C. in 5% CO2 humidified air. In all cases experimental cultures were free from selection agents (hygromycin B, G418). When confluence was reached (3-4 days), cells were sub-cultured as required using trypsin EDTA and used for experimentation. Cells were seeded at a density of 50,000 cells/well into 96-well black, clear-bottom plates. After 24 hours incubation the cells were loaded with medium supplemented with 2.5 mM probenecid, 3 μM of the calcium sensitive fluorescent dye Fluo-4 AM and 0.01% pluronic acid, for 30 min at 37° C. Afterwards the loading solution was aspirated and 100 μl/well of assay buffer: Hank's Balanced Salt Solution (HBSS) supplemented with 20 mM HEPES, 2.5 mM probenecid and 500 μM Brilliant Black (Aldrich) was added. […] On-line additions were carried out in a volume of 50 μl/well. […]
# (§1) Four mice were monitored in parallel. […] Animals locomotion was recorded for 60 min.
# MOP receptor = MOP receptor (Homo sapiens, UniProt P35372); experiment: Calcium mobilization in CHO cells expressing MOP receptor and Gαqi5; type: cell-based; conditions: inactive = inactive up to 1 μM
# MOP receptor, sequence (P35372 whole entry): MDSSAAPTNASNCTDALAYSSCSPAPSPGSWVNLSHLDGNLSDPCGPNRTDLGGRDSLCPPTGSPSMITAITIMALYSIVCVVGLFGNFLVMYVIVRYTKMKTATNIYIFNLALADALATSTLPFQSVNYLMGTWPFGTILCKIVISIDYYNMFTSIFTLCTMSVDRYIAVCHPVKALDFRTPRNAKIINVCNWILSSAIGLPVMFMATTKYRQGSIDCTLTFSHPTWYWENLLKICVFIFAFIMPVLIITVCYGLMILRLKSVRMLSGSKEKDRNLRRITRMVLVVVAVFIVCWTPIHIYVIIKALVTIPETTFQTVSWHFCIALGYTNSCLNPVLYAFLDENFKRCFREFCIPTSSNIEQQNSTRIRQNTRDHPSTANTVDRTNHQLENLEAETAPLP
# Procedure: Cell cultures were kept at 37° C. in 5% CO2 humidified air. In all cases experimental cultures were free from selection agents (hygromycin B, G418). When confluence was reached (3-4 days), cells were sub-cultured as required using trypsin EDTA and used for experimentation. Cells were seeded at a density of 50,000 cells/well into 96-well black, clear-bottom plates. After 24 hours incubation the cells were loaded with medium supplemented with 2.5 mM probenecid, 3 μM of the calcium sensitive fluorescent dye Fluo-4 AM and 0.01% pluronic acid, for 30 min at 37° C. Afterwards the loading solution was aspirated and 100 μl/well of assay buffer: Hank's Balanced Salt Solution (HBSS) supplemented with 20 mM HEPES, 2.5 mM probenecid and 500 μM Brilliant Black (Aldrich) was added. […] On-line additions were carried out in a volume of 50 μl/well. To facilitate drug diffusion into the wells in antagonist type experiments, the present studies were performed at 37° C. and three cycles of mixing (25 μl from each well moved up and down 3 times) were performed immediately after antagonist injection to the wells.
# as §1
# [1] = tested on: electrically stimulated mouse vas deferens; experiment: Electrically stimulated mouse vas deferens
# Procedure: The bath temperature was set at 33° C. Tissues were continuously stimulated through two platinum ring electrodes with supramaximal rectangular pulses of 1 ms duration and 0.05 Hz frequency. A resting tension of 0.3 g was applied to the vas deferens.
# assuming a slope value equal to unity, where CR indicate the ratio between agonist potency in the presence and absence of antagonist.
# [2] = tested on: vas deferens tissues taken from NOP(+/+) mice; experiment: Electrically stimulated vas deferens from NOP(+/+) mice; design: species or system mouse
# Procedure: The bath temperature was set at 33° C. Tissues were continuously stimulated through two platinum ring electrodes with supramaximal rectangular pulses of 1 ms duration and 0.05 Hz frequency. A resting tension of 0.3 g was applied to the vas deferens. […] Following an equilibration period of 60 min, the contractions induced by electrical field stimulation were stable.
# [3] = tested on: vas deferens tissues taken from NOP(−/−) mice; experiment: Electrically stimulated vas deferens from NOP(−/−) mice; design: species or system mouse; conditions: CL95% in brackets
# Procedure: The mouse vas deferens were prepared as previously described (Calto et al., Eur J Pharmacol. 311, (1996) R3-5). Tissues were suspended in 5 ml organ baths containing heated Krebs solution (composition in mM: NaCl 118.5, KCl 4.7, KH2PO4 1.2, NaHCO3 25, glucose 10 and CaCl2 2.5) oxygenated with 95% O2 and 5% CO2. The bath temperature was set at 33° C. Tissues were continuously stimulated through two platinum ring electrodes with supramaximal rectangular pulses of 1 ms duration and 0.05 Hz frequency. A resting tension of 0.3 g was applied to the vas deferens. The electrically evoked contractions (twitches) were measured isotonically with a strain gauge transducer (Basile 7006, UgoBasile s.r.l., Varese, Italy) and recorded with the PC based acquisition system Power Lab (ADInstrument, USA). Following an equilibration period of 60 min, the contractions induced by electrical field stimulation were stable.
# [4] = tested on: spontaneous locomotor activity; experiment: Mouse locomotor activity, CD-1 mice, i.c.v.; type: in vivo
# [5] = tested on: locomotor activity of NOP(+/+) mice; experiment: Locomotor activity of NOP(+/+) mice; conditions: 0.25 nmole, 120 min post injection
# Procedure: (§2) Mice were positioned in a square plastic cage (40×40 cm), one mouse per cage. Four mice were monitored in parallel. Mouse horizontal activity was monitored by a camera while vertical activity was measured by an infrared beam array. Animals locomotion was recorded for 60 min.
# (§3) In vivo data are expressed as mean±sem of n animals. Data were analysed using one-way analysis of variance (ANOVA) followed by Dunnett post hoc test. Differences were considered statistically significant when p<0.05.
# [6] = tested on: locomotor activity of NOP(−/−) mice; experiment: Locomotor activity of NOP(−/−) mice; conditions: 0.25 nmole, 120 min post injection
# Procedure: as §2, §3
molecule,measurement,setting,value
B1,pEC50 (CL95%),human NOP receptor,8.83
same,pEC50,MOP receptor,inactive
same,reversal of inhibitory effect after washing the tissue,[1],rather resistant to washing
same,Emax,[1]; % inhibition of control twitch,93 ± 2%
same,onset of inhibitory effect,[1]; after adding to the bath,slow inhibitory effect
same,pEC50,"[1]; inhibition of twitch response, CD1 mouse vas deferens, CL95% in brackets",7.78 (7.57-7.99)
same,time for inhibitory effect to reach the plateau,[1]; mouse vas deferens,10 min
same,pEC50,[2]; CL95% in brackets,7.92
same,Emax,[2]; maximal inhibition of electrically induced contractions,91 ± 2%
same,pEC50,[3],5.85 (5.55-6.15)
same,locomotor activity in overnight experiment,"[4]; i.c.v. at 11 AM, N/OFQ 10 nmole, PWT2-N/OFQ 0.25 nmole, measured 3 PM to 9 AM",statistically significant reduced distance travelled and rearing behaviour associate with increased immobility time for the whole time course of the experiment
same,acute effects on spontaneous locomotor activity,"[4]; i.c.v., CD-1 mice, recorded for 120 min",slow onset of action and prolonged effects compared to the natural peptide
same,Distance travelled (m),[5],104 ± 19 m
same,Immobility time,[5],3305 ± 390 s
same,Rearings (n),[5],96 ± 19 n
same,Distance travelled (m),[6],203 ± 26 m
same,Immobility time,[6],2372 ± 525 s
same,Rearings (n),[6],625 ± 181 n
